Values joined by “and” are separate entries in the source; they are usually repeats but may differ in a detail not shown here. Identical values can stand only once. Square brackets hold non-standard residues; d marks the D form. Ends that are not written are not given here.
molecular target: Tau40 P301L protein (human); assay: cell-based or functional assay

Binder | IC50, Tau40 assay (ThT)
[dF][dW][dR][dL][dK][dV][dR][dW] [fwrlkvrw (PEPTIDE ID NO: 261)] | 1.32 µM
[dF][dW][dL][dK][dL][dR][dW][dF] [fwlklrwf (PEPTIDE ID NO: 15)] | 1.38 µM and 2.08 µM
[dF][dK][dI][dH][dL][dR][dH][dW] [fkihlrhw (PEPTIDE ID NO: 124)] | 1.34 µM
[dW][dR][dL][dR][dM][dH][dW] [wrlrmhw (PEPTIDE ID NO: 260)] | 1.28 µM
[dW][dE][dL][dK][dV][dR][dW][dW] [welkvrww (PEPTIDE ID NO: 264)] | 1.39 µM
[dL][dK][dI][dH][dI][dR][dH][dW] [lkihirhw (PEPTIDE ID NO: 148)] | 1.29 µM and 1.39 µM
[dW][dR][dL][dR][dI][dH][dT] [wrlriht (PEPTIDE ID NO: 262)] | 1.33 µM
[dW][dR][dL][dW][dI][dH][dW] [wrlwihw (PEPTIDE ID NO: 428)] | 1.29 µM
[dF][dR][dV][dR][dI][dR][dH][dW] [frvrirhw (PEPTIDE ID NO: 118)] | 1.31 µM
[dF][dK][dL][dH][dL][dR][dH][dW] [fklhlrhw (PEPTIDE ID NO: 126)] | 1.39 µM and 1.51 µM
[dW][dK][dV][dW][dV][dR]G[dW] (not fully specified (residue 7); printed as wkvwvrgw) [wkvwvrgw (PEPTIDE ID NO: 93)] | 1.27 µM and 0.99 µM
[dR][dI][dK][dI][dR][dW] [rikirw (PEPTIDE ID NO: 26)] | 1.4 µM and 1.49 µM
[dW][dR][dL][dR][dI][dH][dW][dW] [wrlrihww (PEPTIDE ID NO: 20)] | 1.29 µM and 1.11 µM
[dW][dA][dL][dK][dV][dR][dW] [walkvrw (PEPTIDE ID NO: 257)] | 1.25 µM
[dY][dR][dV][dR][dI][dE][dW][dL] [yrvriewl (PEPTIDE ID NO: 159)] | 1.27 µM and 1.43 µM
[dL][dK][dI][dR][dI][dH][dY][dH] [lkirihyh (PEPTIDE ID NO: 147)] | 1.25 µM and 0.67 µM
[dF][dR][dI][dK][dL][dR][dW] [friklrw (PEPTIDE ID NO: 47)] | 1.37 µM and 1.46 µM
[dF][dH][dI][dR][dI][dR][dH][dW] [fhirirhw (PEPTIDE ID NO: 138)] | 1.26 µM and 1.31 µM
[dH][dL][dK][dI][dR][dI][dH][dY] [hlkirihy (PEPTIDE ID NO: 259)] | 1.25 µM
[dV][dR][dW][dW][dK][dL][dR][dW] [vrwwklrw (PEPTIDE ID NO: 196)] | 0.68 µM
[dF][dK][dL][dK][dL][dR][dH][dW] [fklklrhw (PEPTIDE ID NO: 125)] | 1.34 µM and 1.36 µM
[dW][dR][dL][dK][dF][dR][dW] [wrlkfrw (PEPTIDE ID NO: 263)] | 1.36 µM
